Test results reported in article PMC5040827.

Molecular target: MD39-10MUT
Assay: SPR
Conditions: not given

Question: For PGDM1400, which Kd is on record?
Answer: 6 nM

Question: Which Kd does the source give for PGT121 here?
Answer: 0.8 nM

Question: Which Kd does the source give for PGT128 here?
Answer: 3 nM

Question: With PGT151 as the substance, how does the Kd read?
Answer: 35 nM

Question: With VRC01 as the substance, how does the Kd read?
Answer: 142 nM

Molecular target: GL_(CDR3rev4)
Assay: SPR
Conditions: average of two or three experiments

Question: “BG505 T332N gp120 3MUT (T135A; T139I; one further mutation not printed)” was tested. Which Kd did it give?
Answer: > 28000 nM

Question: How did the Kd turn out when “BG505 T332N gp120 5MUT (V134Y; N136P; I138L; D140N; one further mutation not printed)” was run?
Answer: > 34000 nM

Question: For “BG505 T332N gp120 7MUT (T135A; T139I; V134Y; N136P; I138L; D140N; one further mutation not printed)”, which Kd is on record?
Answer: > 36000 nM

Question: Which Kd does the source give for “BG505 T332N gp120 10MUT (T135A; T139I; V134Y; N136P; I138L; D140N; N137F; T320F; Q328M; one further mutation not printed)” here?
Answer: > 150000 nM

Molecular target: PGT121
Assay: SPR
Conditions: average of two or three experiments

Question: For “BG505 T332N gp120 5MUT (V134Y; N136P; I138L; D140N; one further mutation not printed)”, which Kd is on record?
Answer: 5.7 nM
